Earlier results in patent US20220184026A1, “COMPOSITIONS OF FULVIC ACID AND CANNABINOID AND USES THEREOF” (Omni Bioceutical Innovations, Inc., priority 2019, published 2022).
Where two headings read alike, the source gives them in different places.

Test system: chronic wounds
Parameters: key: N.S. = not statistically significant

B1: transforming growth factor-β2 (protein, UniProt P61812 303-414, looked up)
Transforming growth factor …: ALDAAYCFRNVQDNCCLRPLYIDFKRDLGWKWIHEPKGYNANFCAGACPYLWSSDTQHSRVLSLYNTINPEASASPCCVSQDLEPLTILYYIGKTPKIEQLSNMIVKSCKCS
Robson et al., venous wounds (n=36), 2.5 μg/cm^2 three times per week
  Results: N.S.

B2: platelet-derived growth factor BB (protein, UniProt P01127 82-190, looked up)
Platelet-derived growth …: SLGSLTIAEPAMIAECKTRTEVFEISRRLIDRTNANFLVWPPCVEVQRCSGCCNNRNVQCRPTQVQLRPVQVRKIEIVRKKPIFKKATVTLEDHLACKCETVAAARPVT
Mustoe et al., pressure wounds (n=45), 1 and 3 μg/mL daily
  Results: N.S.
Robson et al., pressure wounds (n=20), 1, 10, and 100 μg/mL daily
  Results: N.S.
